B1: scFv-VHH bispecific molecule JL3 x 6H4 (scFv (VL-L-VH)-L-VHH with C-tag) (bispecific antibody)
chain: QSVLTQPPSASGTPGQRVTISCSGSSSNIGSNIVNWYQQFPGTAPKLLLYSDNQRPSGVPDRFSGSKSGTSASLAISGLQSEDEADYYCAAWDDSLNGPVFGTGTKVTVLGGSEGKSSGSGSESKSTGGSQVQLQESGPGLVKPSETLSLTCSVSGGSIRNYYWSWIRQSAGKELEWFGHIFSTGHINYDSSLKSRVTMSVDTSNNQFSLKLRSVTAADTAVYYCARDNGAALFDFWGQGTLVTVSSGGGGSEVQLVESGGGLVQAGGSLRLSCAASGRPFSNYGMGWFRQAPGKKREFVAGISWSGGSTDYADSVKGRFTISRDNAKNTVYLQMNSLKPEDTAVYYCAAVFSGAETAYYPSDDYDYWGQGTQVTVSSAAAEPEA
B2: scFv-VHH bispecific molecule JL6 x 6H4 (scFv (VL-L-VH)-L-VHH with C-tag) (bispecific antibody)
chain: QSVLTQPPSASGTPGQRVTISCSGSSSNIGSNPVNWYQQLPGTAPKLLIYSNNQRPSGVPDRFSGSKSGTSASLAISGLQSEDEADYFCAAWDDSLNGPVFGGGTKLTVLGGSEGKSSGSGSESKSTGGSQVQLQESGPGLVKPSETLSLTCTVSGGSISSYYWGWIRQPPGKGLEWIGYIYYSGSTNYNPSLKSRVTISVDTSKNQFSLKLSSVTAADTAVYYCARMWEILGFDPWGQGTLVTVSSGGGGSEVQLVESGGGLVQAGGSLRLSCAASGRPFSNYGMGWFRQAPGKKREFVAGISWSGGSTDYADSVKGRFTISRDNAKNTVYLQMNSLKPEDTAVYYCAAVFSGAETAYYPSDDYDYWGQGTQVTVSSAAAEPEA
B3: scFv-VHH bispecific molecule JL5 x 6H4 (scFv (VL-L-VH)-L-VHH with C-tag) (bispecific antibody)
chain: QSVLTQPPSASGTPGQRVTISCSGSSSNIGSNIVNWYQQFPGTAPKLLIYSNNQRPSGVPDRVSGSKSGTSASLAISGLQSEDEADYYCAAWDDSLNGPVFGPGTKVTVLGGSEGKSSGSGSESKSTGGSQVQLQESGPGLVKPSETLSLTCSVSGASIRNYYWSWIRQTAGKGLEWLGHIYSTGNIHYNPSLKSRVTMSVDTSNNQFSLKLRSVTAADTAVYYCARDNGAALFDYWGQGTLVTVSSGGGGSEVQLVESGGGLVQAGGSLRLSCAASGRPFSNYGMGWFRQAPGKKREFVAGISWSGGSTDYADSVKGRFTISRDNAKNTVYLQMNSLKPEDTAVYYCAAVFSGAETAYYPSDDYDYWGQGTQVTVSSAAAEPEA
B4: scFv-VHH bispecific molecule JL6 x 5D3 (scFv (VL-L-VH)-L-VHH with C-tag) (bispecific antibody)
chain: QSVLTQPPSASGTPGQRVTISCSGSSSNIGSNPVNWYQQLPGTAPKLLIYSNNQRPSGVPDRFSGSKSGTSASLAISGLQSEDEADYFCAAWDDSLNGPVFGGGTKLTVLGGSEGKSSGSGSESKSTGGSQVQLQESGPGLVKPSETLSLTCTVSGGSISSYYWGWIRQPPGKGLEWIGYIYYSGSTNYNPSLKSRVTISVDTSKNQFSLKLSSVTAADTAVYYCARMWEILGFDPWGQGTLVTVSSGGGGSEVQLVESGGGLVQAGGSLRLSCAASGRPFSNYAMGWFRQAPGKEREFVTVISWSGGSTYYADSVKGRFTISRDNAKNTVYLQMNSLKPEDTAVYYCAAQFSGASTVVAGTALDYDYWGQGTRVTVSSAAAEPEA
B5: scFv-VHH bispecific molecule JL1 x 5D3 (scFv (VL-L-VH)-L-VHH with C-tag) (bispecific antibody)
chain: DIVMTQSPLSLPVTPGEPASISCKSSQSLLFSNGYKFLDWYLQRPGQSPQLLIYLGSYRASGVPDRFSGSGSGTDFTLKISRVEAEDVGLYYCMQALQTPPTFGGGTKVEIKGGSEGKSSGSGSESKSTGGSEVQLVESGGGLVQPGGSLKVSCEASGFTFSVSAIHWVRQASGKGLEWIGRIRSKGNSYATAYAASVKGRFTISRDDSKNTAYLQMDSLKTEDTAVYYCTRHNDKWNYYGLDVWGQGTTVTVSSGGGGSEVQLVESGGGLVQAGGSLRLSCAASGRPFSNYAMGWFRQAPGKEREFVTVISWSGGSTYYADSVKGRFTISRDNAKNTVYLQMNSLKPEDTAVYYCAAQFSGASTVVAGTALDYDYWGQGTRVTVSSAAAEPEA
B6: scFv-VHH bispecific molecule JL4 x 5D3 (scFv (VL-L-VH)-L-VHH with C-tag) (bispecific antibody)
chain: DVVMTQSPLSLPVTLGQPASISCRSSQSLVYSDGNTYLNWFQQRPGQSPRRLIYKVSTRDSGVPDRFSGSGSGTDFTLKISRVEAEDVAVYYCLQGTHWPWTFGQGTKVEIKGGSEGKSSGSGSESKSTGGSQVQLVESGGGLVQPGGSLRLSCAASGITFSNYWMSWVRQAPGKGLEWVASIKRDGSDKYYVDSVKGRFTISRDNAKNSLSLQMHSLRAEDTAVYYCAKGEFDYWGQGTLVTVSSGGGGSEVQLVESGGGLVQAGGSLRLSCAASGRPFSNYAMGWFRQAPGKEREFVTVISWSGGSTYYADSVKGRFTISRDNAKNTVYLQMNSLKPEDTAVYYCAAQFSGASTVVAGTALDYDYWGQGTRVTVSSAAAEPEA
B7: scFv-VHH bispecific molecule JL2 x 6H4 (scFv (VL-L-VH)-L-VHH with C-tag) (bispecific antibody)
chain: DIVMTQSPLSLPVTPGEPASISCRSSQSLLHSDGYNYLDWYLQKSGQSPQLLIYLGSYRASGVPDRFSGSGSGTDFTLKISRVEAEDVGIYYCMQVLQTPWTFGQGTKVEIKGGSEGKSSGSGSESKSTGGSEVQLVESGGGLVQPGGSLRLSCVVSGFTFSSYWMTWVRQAPGKGLEWVANIKQDGSERYYVDSVKGRFTISRDSAKNSLYLQMNSLRAEDTAVYYCAREVGYNWNQGGYFDYWGQGTLVTVSSGGGGSEVQLVESGGGLVQAGGSLRLSCAASGRPFSNYGMGWFRQAPGKKREFVAGISWSGGSTDYADSVKGRFTISRDNAKNTVYLQMNSLKPEDTAVYYCAAVFSGAETAYYPSDDYDYWGQGTQVTVSSAAAEPEA
B8: scFv-VHH bispecific molecule JL1 x 6H4 (scFv (VL-L-VH)-L-VHH with C-tag) (bispecific antibody)
chain: DIVMTQSPLSLPVTPGEPASISCKSSQSLLFSNGYKFLDWYLQRPGQSPQLLIYLGSYRASGVPDRFSGSGSGTDFTLKISRVEAEDVGLYYCMQALQTPPTFGGGTKVEIKGGSEGKSSGSGSESKSTGGSEVQLVESGGGLVQPGGSLKVSCEASGFTFSVSAIHWVRQASGKGLEWIGRIRSKGNSYATAYAASVKGRFTISRDDSKNTAYLQMDSLKTEDTAVYYCTRHNDKWNYYGLDVWGQGTTVTVSSGGGGSEVQLVESGGGLVQAGGSLRLSCAASGRPFSNYGMGWFRQAPGKKREFVAGISWSGGSTDYADSVKGRFTISRDNAKNTVYLQMNSLKPEDTAVYYCAAVFSGAETAYYPSDDYDYWGQGTQVTVSSAAAEPEA
B9: scFv-VHH bispecific molecule JL3 x 5D3 (scFv (VL-L-VH)-L-VHH with C-tag) (bispecific antibody)
chain: QSVLTQPPSASGTPGQRVTISCSGSSSNIGSNIVNWYQQFPGTAPKLLLYSDNQRPSGVPDRFSGSKSGTSASLAISGLQSEDEADYYCAAWDDSLNGPVFGTGTKVTVLGGSEGKSSGSGSESKSTGGSQVQLQESGPGLVKPSETLSLTCSVSGGSIRNYYWSWIRQSAGKELEWFGHIFSTGHINYDSSLKSRVTMSVDTSNNQFSLKLRSVTAADTAVYYCARDNGAALFDFWGQGTLVTVSSGGGGSEVQLVESGGGLVQAGGSLRLSCAASGRPFSNYAMGWFRQAPGKEREFVTVISWSGGSTYYADSVKGRFTISRDNAKNTVYLQMNSLKPEDTAVYYCAAQFSGASTVVAGTALDYDYWGQGTRVTVSSAAAEPEA
B10: scFv-VHH bispecific molecule JL5 x 5D3 (scFv (VL-L-VH)-L-VHH with C-tag) (bispecific antibody)
chain: QSVLTQPPSASGTPGQRVTISCSGSSSNIGSNIVNWYQQFPGTAPKLLIYSNNQRPSGVPDRVSGSKSGTSASLAISGLQSEDEADYYCAAWDDSLNGPVFGPGTKVTVLGGSEGKSSGSGSESKSTGGSQVQLQESGPGLVKPSETLSLTCSVSGASIRNYYWSWIRQTAGKGLEWLGHIYSTGNIHYNPSLKSRVTMSVDTSNNQFSLKLRSVTAADTAVYYCARDNGAALFDYWGQGTLVTVSSGGGGSEVQLVESGGGLVQAGGSLRLSCAASGRPFSNYAMGWFRQAPGKEREFVTVISWSGGSTYYADSVKGRFTISRDNAKNTVYLQMNSLKPEDTAVYYCAAQFSGASTVVAGTALDYDYWGQGTRVTVSSAAAEPEA
B11: scFv-VHH bispecific molecule JL2 x 5D3 (scFv (VL-L-VH)-L-VHH with C-tag) (bispecific antibody)
chain: DIVMTQSPLSLPVTPGEPASISCRSSQSLLHSDGYNYLDWYLQKSGQSPQLLIYLGSYRASGVPDRFSGSGSGTDFTLKISRVEAEDVGIYYCMQVLQTPWTFGQGTKVEIKGGSEGKSSGSGSESKSTGGSEVQLVESGGGLVQPGGSLRLSCVVSGFTFSSYWMTWVRQAPGKGLEWVANIKQDGSERYYVDSVKGRFTISRDSAKNSLYLQMNSLRAEDTAVYYCAREVGYNWNQGGYFDYWGQGTLVTVSSGGGGSEVQLVESGGGLVQAGGSLRLSCAASGRPFSNYAMGWFRQAPGKEREFVTVISWSGGSTYYADSVKGRFTISRDNAKNTVYLQMNSLKPEDTAVYYCAAQFSGASTVVAGTALDYDYWGQGTRVTVSSAAAEPEA
B12: scFv-VHH bispecific molecule JL4 x 6H4 (scFv (VL-L-VH)-L-VHH with C-tag) (bispecific antibody)
chain: DVVMTQSPLSLPVTLGQPASISCRSSQSLVYSDGNTYLNWFQQRPGQSPRRLIYKVSTRDSGVPDRFSGSGSGTDFTLKISRVEAEDVAVYYCLQGTHWPWTFGQGTKVEIKGGSEGKSSGSGSESKSTGGSQVQLVESGGGLVQPGGSLRLSCAASGITFSNYWMSWVRQAPGKGLEWVASIKRDGSDKYYVDSVKGRFTISRDNAKNSLSLQMHSLRAEDTAVYYCAKGEFDYWGQGTLVTVSSGGGGSEVQLVESGGGLVQAGGSLRLSCAASGRPFSNYGMGWFRQAPGKKREFVAGISWSGGSTDYADSVKGRFTISRDNAKNTVYLQMNSLKPEDTAVYYCAAVFSGAETAYYPSDDYDYWGQGTQVTVSSAAAEPEA

These binders were tested against human CD33 on CD33-expressing THP-1 cells (human, UniProt P20138 18-364) (assay: cell-based or functional assay).
human CD33 on CD33-expressing THP-1 cells, sequence (P20138 18-364): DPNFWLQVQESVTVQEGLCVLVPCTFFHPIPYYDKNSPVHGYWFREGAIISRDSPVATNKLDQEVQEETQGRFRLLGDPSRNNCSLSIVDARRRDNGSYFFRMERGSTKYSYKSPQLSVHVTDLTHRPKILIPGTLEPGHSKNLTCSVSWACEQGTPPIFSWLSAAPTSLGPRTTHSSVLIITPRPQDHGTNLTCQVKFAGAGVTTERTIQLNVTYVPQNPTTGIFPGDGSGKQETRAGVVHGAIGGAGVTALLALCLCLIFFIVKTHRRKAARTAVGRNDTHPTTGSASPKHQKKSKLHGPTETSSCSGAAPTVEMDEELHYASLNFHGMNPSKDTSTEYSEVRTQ
With B1 the “Cytotox EC50 (nM) Donor 104” value was about 0.00079 nM and the “Cytotox EC50 (nM) Donor 156” value was about 0.00099 nM. In the case of B2, the “Cytotox EC50 (nM) Donor 104” value is reported as 0.0012 nM and the “Cytotox EC50 (nM) Donor 156” value is reported as 0.0013 nM. With B3 the “Cytotox EC50 (nM) Donor 104” value was about 0.0013 nM and the “Cytotox EC50 (nM) Donor 156” value was about 0.0019 nM. For B4, the “Cytotox EC50 (nM) Donor 104” value was 0.0044 nM and the “Cytotox EC50 (nM) Donor 156” value was 0.0029 nM. For B5, the “Cytotox EC50 (nM) Donor 104” value was about 0.61 nM and the “Cytotox EC50 (nM) Donor 156” value was about 0.43 nM. In the case of B6, the “Cytotox EC50 (nM) Donor 104” value is reported as about 0.027 nM and the “Cytotox EC50 (nM) Donor 156” value is reported as 0.023 nM. For B7, the “Cytotox EC50 (nM) Donor 104” value was about 0.00097 nM and the “Cytotox EC50 (nM) Donor 156” value was about 0.00077 nM. With B8 the “Cytotox EC50 (nM) Donor 104” value was 0.011 nM and the “Cytotox EC50 (nM) Donor 156” value was 0.0098 nM. In the case of B9, the “Cytotox EC50 (nM) Donor 104” value is reported as about 0.0013 nM and the “Cytotox EC50 (nM) Donor 156” value is reported as about 0.0008 nM. In the case of B10, the “Cytotox EC50 (nM) Donor 104” value is reported as about 0.00093 nM and the “Cytotox EC50 (nM) Donor 156” value is reported as about 0.0007 nM. B11 was tested, and the “Cytotox EC50 (nM) Donor 104” value was 0.0027 nM and the “Cytotox EC50 (nM) Donor 156” value was about 0.0019 nM. For B12, the “Cytotox EC50 (nM) Donor 104” value was about 0.0004 nM and the “Cytotox EC50 (nM) Donor 156” value was about 0.00035 nM.
